Experiment: soluble on expression in E. coli; label from the status in PepcDB or PDB records

Sequence	soluble on expression in E. coli
MKIYYEGYGCTLNQGETGLYVNKLLSEGSVLVSRPDEADISIIGTCAVIQKTEDHMLKRIEELSRLGRVKVIGCLSAIKGSEISGGNIEAIDRNEFQQFQEYLEDTSIIDAEIMSGIPINQGCTGKCNFCISHIARGKLVSRRPEKIVNQIRMMVAAGKREIRISSLDTAAYGKDTGYRLPSLIKDITAVDGDFMLRVGMMEPRNTIEILDDLLEAYDDPKVFKFLHIPVQSGDDRVLTAMNREYTVDEFMQIIESFRKRFPDMTISTDVIIGYHAENDRSFDLTCDLIRKVQPEIINVTRFSPRELTPDFEHRPRPTNVLKDQDRTMAEIHRKIVSERFSALVGKVERILITEDGKPGTMVGRDASYRPVVIRAPAEKYTWHSARIIGYENTSLIGELVDLEHHHHHH	soluble
MSLVNIEFYESVAASEAKFINDTLIPQFEAEYPGIHVTFVNVGSEDVSKDILAMEASGHVGPIVAGQDNLEIGQLIYSSHGNVLMNLTAMSPALMPSSLIPAASNLVQYEQKVFGGIYFFPFRGNVPLVFYNKTALSDAGISSPPANYTQLLQDAMTIHSKTGKDPIMIQGASTNGGHTGSSTATEMYQMMVQFGGNPLYLNDTGDIHAVEMLYNLSAYFSPDFKTGYWGSYRGLAVGNYSILDYQWPYVYNILTASPYNMTNSTLGVYPGPAGPVNANHVLGGDVLFIPKGATNIPSLEAFIRFLLGAQAQRETLLNLSWVAINQNAYRNLPKSESVIFTALEQAIATGVFLRNPTPWITEWQVIFCNDVFNPLFVTHSKTYSDIPSLLSYAHSQMYSYIAANYGQANATLYNNPNAYAPISEGHHHHHH	not soluble
MSTLRLLISDSYDPWFNLAVEECIFRQMPATQRVLFLWRNADTVVIGRAQNPWKECNTRRMEEDNVRLARRSSGGGAVFHDLGNTCFTFMAGKPEYDKTISTSIVLNALNALGVSAEASGRNDLVVKTVEGDRKVSGSAYRETKDRGFHHGTLLLNADLSRLANYLNPDKKKLAAKGITSVRSRVTNLTELLPGITHEQVCEAITEAFFAHYGERVEAEIISPNKTPDLPNFAETFARQSSWEWNFGQAPAFSHLLDERFTWGGVELHFDVEKGHITRAQVFTDSLNPAPLEALAGRLQGCLYRADMLQQECEALLVDFPEQEKELRELSAWMAGAVR	soluble
MSPAPVQVMGVLNVTDDSFSDGGCYLDLDDAVKHGLAMAAAGAGIVDVGGESSRPGATRVDPAVETSRVIPVVKELAAQGITVSIDTMRADVARAALQNGAQMVNDVSGGRADPAMGPLLAEADVPWVLMHWRAVSADTPHVPVRYGNVVAEVRADLLASVADAVAAGVDPARLVLDPGLGFAKTAQHNWAILHALPELVATGIPVLVGASRKRFLGALLAGPDGVMRPTDGRDTATAVISALAALHGAWGVRVHDVRASVDAIKVVEAWMGAERIERDG	soluble
MLKRCNFKNQVKYFQSDFEQLIRQHPEKIIILDFYATWCGPCKAIAPLYKELATTHKGIIFCKVDVDEAEDLCSKYDVKMMPTFIFTKNGDAIEALEGCVEDELRQKVLEHVSAQ	not soluble
MSLQTQLVHELVENQPTKLLIYVKNIRTIRTKKGEQMAFVDGDDTTGSISLTLFPTVFRQLRQSVEKGQVYYVEGKVERSTYNQELQILVQRIEKAQQVETSISDETCFIRITKDVEQTDVFQKMKEVLSRHAGHIPVIVYFEKTGKKIVLNEENWVAHTSASQQQLAYVLGEQNVIFKEGHHHHHH	soluble
MSLCEKEINNNNNNNELTEKSKEEIEKDEIEYLEYLKYRKEIIDSHCHIHEDVEHLQESCDLPFKKILLMGTTVEDWDKINQLADKINDDNKIIRCFGIHPWFVYNYLPPTELIGKIKEGDGSNDSIIISIDETWRIKMKELLLKYPNSIVGEIGIDKVTKVRLNGFNKNDQESQMRVFRDQIEIANELDRLVSLHCVQLQGQLLTFFQSLDIDKFPPAIALHTFGGKPATVDQFCKMASGKGDKFYFGLSFINLTFSKVDKLIQAIPDDRLLLESDQNSPTQVDQSLFKLIQKISISKNWTIQKTIEQTTLNTLNFLSKQIKKEGHHHHHH	soluble
MDKKANSNQNQEQKRETSDAVDRAAKAGLFNRIYVTVGQKVGIVELTKLEPRFERNIEKLTTYHNIIYNMVNAIELQVQVDPKAIVKNQVLCDPDESPWELLGGWINYMGTYHFNGPQSKILDAYSIACGKIGQKERQLQKRTRSHCIKKMRMYTADESVELNNHVAHLKDLLIAIDDSRHQLKSSRTTKEVKAKGEIYRKNIQAFNCTANEVQARLDEVPMIVPHHENELLKFSREVSIFNNSVENLLKEVVFRLGYGKRNDKPSTRAVLK	not soluble
MAGQLTFKRELEKVFEKELKKRIERIGKTPLSPLSLILFTRIAELSAIENGYIRPTEYEMREIFAARTTYSEGLLSTLKDIIYSHFLRSNLGEHLEDFIYTLQRIEDIQSKIDELILREMREVSLRKVYHELLRFLLDMLCDKDMVRFD	not soluble
MSKKRGLSGEEKRTRMMEIFFETKDVFQLKDLEKLAPKEKGITAMSVKEVLQSLVDDGMVDCERIGTSNYYWAFPSKALHARKRKLEALNSQLSEGSQKHADLQKSIEKARVGRQETEERAMLAKELFSFRDQRQQLKAEVEKYRECDPQVVEEIREANKVAKEAANRWTDNIFAIKSWAKRKFGFEESKIDKNFGIPEDFDYIDMSKSRAEAAAGAPGIILRYLQEQNRPYSAQDVFGNLQKEHGLGKAAVVKALDQLAQEGKIKEKTYGKQKIYFADQNQFDTVSDADLHGLDASIVALTAKVQSLQQSCRHMEAELKELTSALTTPEMQKEIQELKKECAQYTERLKNIKAATNHVTPEEKEKVYRDRQKYCKEWRKRKRMTTELCDAILEGYPKSKKQFFEEVGIETDEDHNVLLPDP	soluble
SPSDVLVIENKHLTKEWPSGGQMMVNNLTAKYTSDGRAVLQDLSFSVNAGQRVGLLGRTGAGKSTLLSALLRLLSTEGEIQIDGISWNSVSLQKWRKAFGVIPQKVFVFSGTFRKNLDPYEQWSDEEIWKVTEEVGLKSMIEQFPDKLNFVLVDGGYILSNGHKQLMCLARSILSKAKILLLDEPTAHLDPVTFQIIRKTLKHTFSNCTVILSEHRVEALLECQQFLVIEGCSVKQFDALQKLLTEASLFKQVFGHLDRAKLFTAHRRNSSKRKTRPKISALQEEAEEDLQETRL	soluble
TETTSFLITKFSPDQQNLIFQGDGYTTKEKLTLTKAVKNTVGRALYSSPIHIWDRETGNVANFVTSFTFVINAPNSYNVADGFTFFIAPVDTKPQTGGGYLGVFNSAEYDKTTQTVAVEFDTFYNAAWDPSNRDRHIGIDVNSIKSVNTKSWKLQNGEEANVVIAFNAATNVLTVSLTYPN	soluble
GAMGSSLDNPTPFPNLGPSENPLKRLLVPGEEWEFEVTAFYRGRQVFQQTISCPEGLRLVGSEVGDRTLPGWPVTLPDPGMSLTDRGVMSYVRHVLSCLGGGLALWRAGQWLWAQRLGHCHTYWAVSEELLPNSGHGPDGEVPKDKEGGVFDLGPFIVDLITFTEGSGRSPRYALWFCVGESWPQDQPWTKRLVMVKVVPTCLRALVEMARVGGASSLENTVDLHISNSHPLSLTSDQYKAYLQDLVEGMDFQGPGES	soluble
MRTTYREHLDAFAQDLITMCDTVAAVVEGASTGLLEGSLQSAQHALSLSDELDEVKNRATKRAVQLLSLEAPVARDLRQIVSSIYIIEDFDRMASLAMHIASMARRRHPDLVVPEPIRGYFHEMARLCTEMSDKTRSVLVDPDADVAIVLAADDDAIDDIHEHIMTLLTKKEWPFSTRAAVEVTLLARYYERFADHTVNVAAQIVYLTTGLMPEEYKKKRDDGFEPDEMEARFAQLEEQFANYDWPKPAD	not soluble
ARIRAPQEATVKEVHDAPAVRGSIIANMLQEHDNPFTLYPYDTNYLIYTQTSDLNKEAIASYDWAENARKDEVKFQLSLAFPLWRGILGPNSVLGASYTQKSWWQLSNSEESSPFRETNYEPQLFLGFATDYRFAGWTLRDVEMGYNHDSNGRSDPTSRSWNRLYTRLMAENGNWLVEVKPWYVVGNTDDNPDITKYMGYYQLKIGYHLGDAVLSAKGQYNWNTGYGGAELGLSYPITKHVRLYTQVYSGYGESLIDYNFNQTRVGVGVMLNDLF	soluble
MSLTYINKEKVIKNLSYAIYLLKKMNFTLIPEVGSNIAESLPFPKDFKDVAALTGRIIKNKLGGFYIVGDIEFGASEHIAKIILSASKFNPEIRACMNIKYDGGLIKLLKDKFAVSSFDRKEEPPNVSTMEWGTKIACEKFGGVPDIIYDRGGEGKEPMIRVLGRDAIEVVKKVEVIQKIYNTLEGHHHHHH	soluble

Reference: the DeepSol protein solubility set
